What was measured:
[1] = system: MS2 coat protein; test: apparent KD of MS2 coat protein, switch ON state; designed switch direction (-1 OFF switch, 1 ON switch): -1; higher = weaker reporter binding; conditions: FMN input: 0 or 200 uM; Eterna round: R93 (includes R88 designs)
How it was run: (§1)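 Titrations with SNAP-549-labelled MS2 coat protein ran in twofold steps from 0.7 or 1.5 nM to 3 µM, each step taking 0.8–1.5 h at the start and 10–20 min toward the end. The targets were designed RNA switches transcribed on-chip from Illumina sequencing clusters, held in 100 mM Tris-HCl pH 7.5, 80 mM KCl, 4 mM MgCl2, without or with constant ligand. Apparent KD was taken per design as the median of normalised cluster binding-curve fits.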

[2] = system: MS2 coat protein; test: apparent KD of MS2 coat protein, switch OFF state (with FMN for OFF switches, without FMN for ON switches); designed switch direction (-1 OFF switch, 1 ON switch): -1; higher = weaker reporter binding; conditions: FMN input: 0 or 200 uM; Eterna round: R93 (includes R88 designs)
How it was run: as §1

Sequence	apparent KD of MS2 coat protein [1] [nM]	apparent KD of MS2 coat protein [2] [nM]
CAGUACUGAGGAUAUACAUGAGGAUCACCCAUGUGUAAAAGCUAGGAAACUAGCACAUGUAGAAGGCAGUACUG [Ex3: 815]	48.3	230
CAGUACUGAGGAUAUACAUGAGGAUCACCCAUGUGUUAAAGCUAGGAAACUAGCAAAUGUAGAAGGCAGUACUG [Ex3: 817]	14	47.9
CAUUCACAUGAGGAUCACCCAUGUAAGGAUAUCGAAAUAUAACUAAUCAAUAAACAAACGAGAAGGUACAAAAA [Exclusion 1 design 10]	33.7	23.8
CCUAUGUCAGGAUAUCAGUAGUAAAAAAAAAAAAUUACUACUGAGAAGGGACAUGAGGAUCACCCAUGUACCUU [EX4 310: Super Stable 10]	25.5	17.8
CGUUGGCGAGGAUAUACAUGAGGAUCACCCAUGUGAGAGAAAAAAGUGAGAAAGAAAAGUAGAAGGCGCUGACA [salish99-ex3-11]	45.3	264
CUCAAGUGAGGAUAUACAAAAAGUAAAUAAGUAAAACAAAAGUAGAAGGCACAUGAGGAUCACCCAUGUAAAUA [JR_Exc004_Sub301]	45.5	63.1
CUCAAGUUAGGAUAUGUAAGAAAAGAAGAGAAAGAAAAGAAACAGAAGGAACAUGAGGAUCACCCAUGUAAGAA [EteRNA is fun!]	22.1	24.1
CUCAUGUCAGGAUAUCAGUAGUAAAAAAAAAAAAUUACUACUGAGAAGGGACAUGAGGAUCACCCAUGUCCCAA [EX4 305: Super Stable 5]	30.7	36.3
CUCAUGUGAGGAUAUGUACGAAAAAAUAAAAAAAUAAAAGUACAGAAGGCACAUGAGGAUCACCCAUGUGAAAA [EX4 398: Minimal 11]	42.5	24.3
CUCAUGUUAGGAUAUUUAUGAAAUGAAGUGAAAGAAAAGAAAAAGAAGGAACAUGAGGAUCACCCAUGUUAGAA [EteRNA is fun!]	65.2	35.4
CUCUAGUGAGGAUAUGGAAGAAAAGAAAAGAAAGAAAAGAACCAGAAGGCACAUGAGGAUCACCCAUGUAAGAA [EteRNA is fun!]	47.7	66
CUCUUGUAAGGAUAUGACUACAUAAAAAAAAAAAAAUGUAGUCAGAAGGUACAUGAGGAUCACCCAUGUACAAA [Brourd - Exclusion 4 - Sub 1]	24.5	36
CUCUUGUCAGGAUAUUCAAGAAAAGAAGAGAAAGAAAAGAAGAAGAAGGGACAUGAGGAUCACCCAUGUAAGAA [EteRNA is fun!]	52.4	67.2
CUCUUGUGAGGAUAUAGAAGAAAAGAAAAGAAAGAAAAGAACUAGAAGGCACAUGAGGAUCACCCAUGUAAGAA [EteRNA is fun!]	38.7	67.7
CUCUUGUGAGGAUAUCAAAGAAAAGAAGAGAAAGAAAAGAAUGAGAAGGCACAUGAGGAUCACCCAUGUAAGAA [EteRNA is fun!]	28.9	59.5
CUGGUGUCAGGAUAUGCAUAGCAGUGACCAAAACCCGGUCAGCAGAAGGGACAUGAGGAUCACCCAUGUUAAAG [Alatele]	22.3	57.7
CUUAAGUCAGGAUAUGUCAAAAGUCACAAAAGUGACAAAAGACAGAAGGGACAUGAGGAUCACCCAUGUAAAAA [Starry Exclusion 4.5 (starryjess round 1 mod)]	78.3	139

Sequence	apparent KD of MS2 coat protein [1] [nM]	apparent KD of MS2 coat protein [2] [nM]
CUUGUGUGAGGAUAUGUAAGAUGAAUAAGCAGUUCUAAAAGGCAGAAGGCACAUGAGGAUCACCCAUGUAAAAU [Sodirexe]	61.3	16.1
GAAAAACAUGAGGAUCACCCAUGUCAGGAUAUGCAGAAAAAGAAAAAAAGAAAAGAAAGUAGAAGGGACAAAAG [Mat - Same state - Mayanna Mod - D106]	29.4	28.6
GAAAACAUAGGAUAUACAUGAGGAUCACCCAUGUUAAAAUAAAGAAAGGGAGAAAUAAGUAGAAGGAUGAAAAA [Mat - Mod of Meechl]	25.6	29.8
GAAAAGUCAGGAUAUAUAGGAAAAAUAAAAAAAAUAAAACUAUAGAAGGGACAUGAGGAUCACCCAUGUUAAAG [Mat - Exclusion 4 - Mayanna - D132]	44.5	25.5
GAAAAGUCAGGAUAUGUGGAAAAAAUAAAAAAAAUAAAAACACAGAAGGGACAUGAGGAUCACCCAUGUAAAAA [Mat - Exclusion 4 - Mayanna - D140]	68.3	39
GAAAAGUGAGGAUAUGUCAAAAGUCACAAAAGUGACAAAAGACAGAAGGCACAUGAGGAUCACCCAUGUGAAAA [Mat - Exaclusion 4 - Eli mod - D55]	24.2	43.8
GAAAAGUGAGGAUAUGUCAAAAGUCACAAAAGUGACAAAAGACAGAAGGCACAUGAGGAUCACCCAUGUGAAAG [Mat - Exaclusion 4 - Eli mod - D54]	24.7	28.4
GAAAAUUGAGGAUAUACGAACAUGUCAAAAGACGUGAAGGGACAUGAGGAUCACCCAUGUAGAAGGCGAAAAAG [Mat - Exclusion 2 - JL mod - D93]	32	12.3
GAAACACAUGAGGAUCACCCAUGUCAGGAUAUGUAGAUAAAAAGAAAAUAAAAUAAAAGCAGAAGGGACAAAAG [Mat - Same state - Mayanna Mod - D104]	30.2	29.4
GAAAGGGCAGGAUAUGCAGAGAGAGAGAGAGAAAAAAAAAAACAUGAGGAUCACCCAUGUAGAAGGGCCGAAAG [salish99-ex2-05]	42.4	32.2
GAUAGUGAAGGAUAUACUGGAGGAGUGCGAUAGAAGCAAGAACAUGAGGAUCACCCAUGUAGAAGGUCAGAAGU [JR_Exc002_Sub1224]	25.5	23.2
GAUCCACAUGAGGAUCACCCAUGUGAGGAUAUCGUGCAGAAAAAAAAAAAAAACUGCACGAGAAGGCACAUGGG	19.4	13
GCUCAGUAAGGAUAUUAAUGGCGCUGUUAUUCAGCACCAGCUGAGAAGGUACAUGAGGAUCACCCAUGUGGUGA [Berion]	240	216
GCUUGCGAAGGAUAUACAUGAGGAUCACCCAUGUGAGAGAAAAAAGUGAGAAAGAAAAGUAGAAGGUCGUGAGG [salish99-ex3-95]	28.3	72.8
GCUUGGCUAGGAUAUACAUGAGGAUCACCCAUGUGAGAGAAAAAAGUGAGAAAGAAAAGUAGAAGGAGUUGAGG [salish99-ex3-82]	46.2	39.7
GGAAAACAUGAGGAUCACCCAUGUAAGGAUAUGCUAAGGAAGGAAAAAAACCCACCAGGCAGAAGGUACUAAAG [Janelle Amethyst 18 Mod 4 - Jieux - Exclusion 1]	23.1	47.2
GGAAAACAUGAGGAUCACCCAUGUGAGGAUAUGCAGGAUAUAGAAGGAAAAAAAAAAAGCAGAAGGUACGAAGG [salish99-ex1-17]	22.3	36.3

— the supplement of paper PMC9170038
